# Molecular target: OsAP2-39 (OsNUE39) (Oryza sativa) (UniProt Q7XPL6)
# Assay: EMSA
# Conditions: Invitrogen EMSA kit E33075 per manufacturer; 30 ng protein with 0-400 ng DNA; 4-20% TBE native gel, 200 V, 45 min; buffer, salt, pH and temperature not stated
# OsAP2-39 (OsNUE39) (Oryza sativa), sequence (Q7XPL6 entry or part of it): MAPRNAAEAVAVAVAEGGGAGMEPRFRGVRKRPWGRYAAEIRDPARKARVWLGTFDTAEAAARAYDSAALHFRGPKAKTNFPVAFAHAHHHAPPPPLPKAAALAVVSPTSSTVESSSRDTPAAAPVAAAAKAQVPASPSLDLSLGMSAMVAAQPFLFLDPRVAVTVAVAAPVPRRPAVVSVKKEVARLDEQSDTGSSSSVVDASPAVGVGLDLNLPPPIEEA
sequence,measurement,value
AGTGTTCTGTTCCCCCGGGGAGATAAACCCCCCCTCCTTGGCAACGATACTACCAAGGTTTCTCATCACCAAGATTGTTTGCATGGGACACAGTAACAAACACCGCAGCCGCCGGCGCCGCAGACATT (double strand) [OsNCED-1 promoter GCC-box fragment],binding,binds

# — publication PMC2936520
